# Where two headings read alike, the source gives them in different places.
# Assays:
# Op18-Δ5-9-F (human) [1] = experiment: pull-down
# Op18-Δ5-9-F (human) [2] = experiment: pull-down; remark: listed apart in the source
# [3] = biological target: tubulin as used by Curmi et al. 1997; experiment: plasmon resonance measurement; conditions: pH 6.5; cited from earlier work
Substance,Free [tubulin] at half saturation of Op18 (Op18-Δ5-9-F (human) [1]),Kd1 (first tubulin heterodimer) (Op18-Δ5-9-F (human) [1]),Kd2 (second tubulin heterodimer) (Op18-Δ5-9-F (human) [1]),stoichiometry N (mol tubulin per mol) (Op18-Δ5-9-F (human) [1]),Kd1 (first tubulin heterodimer) (Op18-Δ5-9-F (human) [2]),Kd2 (second tubulin heterodimer) (Op18-Δ5-9-F (human) [2]),Kd [3]
tubulin heterodimer (bovine tubulin) (from UniProt Q6B856 1-445) (complex),7.1 µM,74 µM,0.98 µM,2.1,6.5 µM,0.91 µM,
stathmin/Op18 as used by Curmi et al. 1997,,,,,,,0.5 µM

# — PMC2156119
